According to the supplement of paper PMC10567573:
± gives the standard deviation.

Test: protein stability index of a GFP-peptide fusion (GPS, HEK-293T) (PSI 1-6); higher = more stable
Conditions: c terminus: a fixed tail appended
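Further: 24-mer peptide tiles fused after GFP, lentivirally expressed, FACS-sorted into six equal bins by GFP/DsRed ratio, decoded by Illumina sequencing, PSI is the read-weighted mean bin number.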

Sequence: LYELASLKRAFEAANLPALVLKIM [NEK8]
- protein stability index (treatment: DMSO): 2.33 ± 0.36
- protein stability index (treatment: MLN4924 1 uM, 8 h): 2.12 ± 0.34

Sequence: RAYRFVQGKDWGFKKFIRRDFLLD [SPOPL]
- protein stability index (treatment: DMSO): 2.48 ± 1.1
- protein stability index (treatment: MLN4924 1 uM, 8 h): 2.28 ± 0.29

Sequence: TLEQHLNTLEGKKPGNNEGSGAPS [SNAP91]
- protein stability index (treatment: DMSO): 4.81 ± 0.18
- protein stability index (treatment: MLN4924 1 uM, 8 h): 5.14 ± 0.08

Sequence: NDLWPTMENLLQATKSHVDKVIMK [DYNC2LI1]
- protein stability index (treatment: DMSO): 3.23 ± 0.25
- protein stability index (treatment: MLN4924 1 uM, 8 h): 3.31 ± 0.32

Sequence: HFHRTLKEACDQHGPDLYPKFKKW [CPOX]
- protein stability index (treatment: DMSO): 2.49 ± 0.21
- protein stability index (treatment: MLN4924 1 uM, 8 h): 2.75 ± 0.14

Sequence: GKPGDRNCPEFPPPDRTLGCWATD [RSPH3]
- protein stability index (treatment: DMSO): 4.03 ± 0.28
- protein stability index (treatment: MLN4924 1 uM, 8 h): 4.32 ± 0.24

Sequence: WESSAGGSFTVRADHGEPIGRGTK [HSP90AB1]
- protein stability index (treatment: DMSO): 4.83 ± 0.28
- protein stability index (treatment: MLN4924 1 uM, 8 h): 4.79 ± 0.55

Sequence: QVETSIEGTIPFSKPVKVYIMPKP [INTS4]
- protein stability index (treatment: DMSO): 2.65 ± 0.33
- protein stability index (treatment: MLN4924 1 uM, 8 h): 2.65 ± 0.42

Sequence: IRPVAGYLSPRDFLSGLAFRVFHC [TPH1]
- protein stability index (treatment: DMSO): 2.1 ± 0.13
- protein stability index (treatment: MLN4924 1 uM, 8 h): 2.12 ± 0.1

Sequence: FSDLQVYSYRRLGEEALSLQALDP [SLC22A15]
- protein stability index (treatment: DMSO): 2.73 ± 0.34
- protein stability index (treatment: MLN4924 1 uM, 8 h): 2.84 ± 0.31

Sequence: NGTYAGPAPAFQPFFFTGAFPFNM [ANKRD40]
- protein stability index (treatment: DMSO): 2.32 ± 1.2
- protein stability index (treatment: MLN4924 1 uM, 8 h): 2.51 ± 0.5

Sequence: WTVWSGNRASLYSFPEPEAAQPMT [PRAME]
- protein stability index (treatment: DMSO): 2.45 ± 0.034
- protein stability index (treatment: MLN4924 1 uM, 8 h): 2.57 ± 0.25

Sequence: DPGPEPEEEPGVRNGMASEGLNSS [PSD2]
- protein stability index (treatment: DMSO): 5.58 ± 0.25
- protein stability index (treatment: MLN4924 1 uM, 8 h): 5.44 ± 0.35

Sequence: EKALKKNVKLQELINHKKAEDTEK [CEP70]
- protein stability index (treatment: DMSO): 4.85 ± 0.34
- protein stability index (treatment: MLN4924 1 uM, 8 h): 5.07 ± 0.2

Sequence: VCDSCYDSIKDEDRTSLATFHEGK [WDFY1]
- protein stability index (treatment: DMSO): 4.62 ± 0.28
- protein stability index (treatment: MLN4924 1 uM, 8 h): 4.83 ± 0.26

Sequence: DAVPPGMESLISAPLVKTLEKEEE [CDC25B]
- protein stability index (treatment: DMSO): 5.44 ± 0.21
- protein stability index (treatment: MLN4924 1 uM, 8 h): 5.58 ± 0.33

Sequence: VEEPSSKDVMEKREDSKEAEKSGE [CHGA]
- protein stability index (treatment: DMSO): 5.5 ± 0.36
- protein stability index (treatment: MLN4924 1 uM, 8 h): 5.58 ± 0.32

Sequence: HSTTPSGPGDEVARGIAGEKFDIV [ARFIP2]
- protein stability index (treatment: DMSO): 4.75 ± 0.34
- protein stability index (treatment: MLN4924 1 uM, 8 h): 4.64 ± 0.15

Sequence: LLPPGEPPLLGTFPRDHTSLALVQ [ANKRD40]
- protein stability index (treatment: DMSO): 3.48 ± 0.096
- protein stability index (treatment: MLN4924 1 uM, 8 h): 3.39 ± 0.31

Sequence: RSLSPSLSSVDMRMTSSPSSIPRR [RAD54B]
- protein stability index (treatment: DMSO): 4.66 ± 0.15
- protein stability index (treatment: MLN4924 1 uM, 8 h): 4.69 ± 0.18

Sequence: LPRHQDQPHHQPPNRAGAPGESLE [TRAF3IP2]
- protein stability index (treatment: DMSO): 5.51 ± 0.2
- protein stability index (treatment: MLN4924 1 uM, 8 h): 5.43 ± 0.095

Sequence: ECGKTFIYNSHLVVHQRVHSGEKP [ZNF232]
- protein stability index (treatment: DMSO): 2.96 ± 0.37
- protein stability index (treatment: MLN4924 1 uM, 8 h): 2.9 ± 0.49

Sequence: GPYEGGGPVAGLDDSGGPTPSSYA [ZBTB22]
- protein stability index (treatment: DMSO): 4.95 ± 0.24
- protein stability index (treatment: MLN4924 1 uM, 8 h): 4.97 ± 0.17

Sequence: DVMLEELSLLTNRGSKMFKLRQMR [MYOZ1]
- protein stability index (treatment: DMSO): 2.48 ± 0.19
- protein stability index (treatment: MLN4924 1 uM, 8 h): 2.67 ± 0.29

Sequence: KEEVRAALEQREQDAVDQVKVIMD [TRIM29]
- protein stability index (treatment: DMSO): 5.23 ± 0.36
- protein stability index (treatment: MLN4924 1 uM, 8 h): 5.39 ± 0.13

Sequence: HLKRHFMFRNHLCLVFELLSYNLY [DYRK1B]
- protein stability index (treatment: DMSO): 3.34 ± 0.23
- protein stability index (treatment: MLN4924 1 uM, 8 h): 3.29 ± 0.88

Sequence: FTGVITQGRNSLWLSDWVTSYKVM [CPXM2]
- protein stability index (treatment: DMSO): 3.21 ± 0.45
- protein stability index (treatment: MLN4924 1 uM, 8 h): 2.94 ± 0.84

Sequence: ARAFAEKNNLSFIETSALDSTNVE [RAB11B]
- protein stability index (treatment: DMSO): 4.51 ± 0.15
- protein stability index (treatment: MLN4924 1 uM, 8 h): 4.54 ± 0.13

Sequence: RCHRGYTLDPNGKTCSRVDHCAQQ [MATN2]
- protein stability index (treatment: DMSO): 3.68 ± 0.28
- protein stability index (treatment: MLN4924 1 uM, 8 h): 3.22 ± 0.34

Sequence: DLLLWIQKHTEVETVDLVLKLKNK [DENND6A]
- protein stability index (treatment: DMSO): 2.57 ± 0.63
- protein stability index (treatment: MLN4924 1 uM, 8 h): 2.21 ± 0.45

Sequence: TVLAVLEDSSRDIREALHELLCCT [INTS4]
- protein stability index (treatment: DMSO): 2.43 ± 0.54
- protein stability index (treatment: MLN4924 1 uM, 8 h): 2.29 ± 0.26

Sequence: EEEPTGAGLNKDKETEERTDGERV [SDE2]
- protein stability index (treatment: DMSO): 5.84 ± 0.13
- protein stability index (treatment: MLN4924 1 uM, 8 h): 5.61 ± 0.37

Sequence: FNDVAKFLKQGDSADETTAHKTEE [CMTM3]
- protein stability index (treatment: DMSO): 4.97 ± 0.23
- protein stability index (treatment: MLN4924 1 uM, 8 h): 5.13 ± 0.12

Sequence: EVAGGGTPLLIAARYGHLDVVEYL [FEM1A]
- protein stability index (treatment: DMSO): 2.46 ± 0.19
- protein stability index (treatment: MLN4924 1 uM, 8 h): 2.32 ± 0.34

Sequence: LLHLHQTAHADEFDCPSELQHTQE [STEAP1]
- protein stability index (treatment: DMSO): 4.66 ± 0.11
- protein stability index (treatment: MLN4924 1 uM, 8 h): 4.78 ± 0.11

Sequence: RNQVVSSTNGELNVDDPTGAHSNA [CSNK1G1]
- protein stability index (treatment: DMSO): 5.25 ± 0.12
- protein stability index (treatment: MLN4924 1 uM, 8 h): 5.22 ± 0.18

Sequence: YFFPVIFSKASSSLQLVFGIELME [MAGEA3]
- protein stability index (treatment: DMSO): 3.44 ± 0.27
- protein stability index (treatment: MLN4924 1 uM, 8 h): 2.96 ± 0.25

Sequence: GKDEIEAAVKAAREAFPSWSSRSP [ALDH8A1]
- protein stability index (treatment: DMSO): 4.5 ± 0.32
- protein stability index (treatment: MLN4924 1 uM, 8 h): 4.29 ± 0.23

Sequence: KIRKIHTQRQYKEDESQSEEENDY [CEP70]
- protein stability index (treatment: DMSO): 5.14 ± 0.21
- protein stability index (treatment: MLN4924 1 uM, 8 h): 5.16 ± 0.18

Sequence: LINTIRVVCASYEDYGHWLLCLRA [PLEKHN1]
- protein stability index (treatment: DMSO): 2.76 ± 0.89
- protein stability index (treatment: MLN4924 1 uM, 8 h): 2.43 ± 0.41

Sequence: VRRRYSDFEWLRSELERESKVVVP [SNX3]
- protein stability index (treatment: DMSO): 2.17 ± 0.12
- protein stability index (treatment: MLN4924 1 uM, 8 h): 2.33 ± 0.17

Sequence: FLVANFSQIETLTSVFQKKLCTAH [MATN2]
- protein stability index (treatment: DMSO): 2.6 ± 0.56
- protein stability index (treatment: MLN4924 1 uM, 8 h): 2.52 ± 0.49

Sequence: SLLDVAEPGGPGWLPESDCETVTC [SMAD6]
- protein stability index (treatment: DMSO): 4.63 ± 0.27
- protein stability index (treatment: MLN4924 1 uM, 8 h): 4.74 ± 0.18

Sequence: GKEVSGDQIEDMFEQGKWDVFSEN [STX11]
- protein stability index (treatment: DMSO): 4.33 ± 0.31
- protein stability index (treatment: MLN4924 1 uM, 8 h): 4.31 ± 0.35

Sequence: TPAGLPPSRAKPPTEGAGSPAKAS [FBF1]
- protein stability index (treatment: DMSO): 5.38 ± 0.32
- protein stability index (treatment: MLN4924 1 uM, 8 h): 5.4 ± 0.1

Sequence: LCAPEVISLINTRMLFWACSTNKP [FAF2]
- protein stability index (treatment: DMSO): 3.04 ± 0.47
- protein stability index (treatment: MLN4924 1 uM, 8 h): 2.88 ± 0.41

Sequence: TPEKKAEEERDEEEDKRRKGEEVT [EPB41L3]
- protein stability index (treatment: DMSO): 5.74 ± 0.29
- protein stability index (treatment: MLN4924 1 uM, 8 h): 5.75 ± 0.27

Sequence: GEDQWNPNGKHSTNFVSRYDPRFN [KLHL14]
- protein stability index (treatment: DMSO): 3.83 ± 0.23
- protein stability index (treatment: MLN4924 1 uM, 8 h): 3.57 ± 0.41

Sequence: SGDFRSSTEDMERALSEYLAVFAR [P3H4]
- protein stability index (treatment: DMSO): 3.44 ± 0.23
- protein stability index (treatment: MLN4924 1 uM, 8 h): 4.11 ± 0.17

Sequence: SKRMGPMTVVRMDASVQPGPFRTL [RHOBTB1]
- protein stability index (treatment: DMSO): 2.76 ± 0.14
- protein stability index (treatment: MLN4924 1 uM, 8 h): 2.91 ± 0.48

Sequence: EDLLQQMLERRYTPYPNLYPDQSP [CLCN6]
- protein stability index (treatment: DMSO): 3.28 ± 0.24
- protein stability index (treatment: MLN4924 1 uM, 8 h): 3.29 ± 0.15

Sequence: DLTFAPDGSLILVSASRDKTLRVW [WSB1]
- protein stability index (treatment: DMSO): 2.32 ± 0.31
- protein stability index (treatment: MLN4924 1 uM, 8 h): 2.37 ± 0.099

Sequence: GCANNLLVHHRAAHSNEILIFSVQ [KLHDC2]
- protein stability index (treatment: DMSO): 2.49 ± 1
- protein stability index (treatment: MLN4924 1 uM, 8 h): 2.67 ± 0.58

Sequence: QQQCHEMAERLEDSVLKGMQAASS [SDE2]
- protein stability index (treatment: DMSO): 4.17 ± 0.33
- protein stability index (treatment: MLN4924 1 uM, 8 h): 4.2 ± 0.41

Sequence: GNLEVGEPQSEPVRVLDMVAKLES [FBXO34]
- protein stability index (treatment: DMSO): 5.01 ± 0.34
- protein stability index (treatment: MLN4924 1 uM, 8 h): 4.87 ± 0.2

Sequence: PTWIIDPIDGTTNFVHRFPFVAVS [IMPA1]
- protein stability index (treatment: DMSO): 2.36 ± 0.22
- protein stability index (treatment: MLN4924 1 uM, 8 h): 2.25 ± 0.25

Sequence: EEVTRLGAQVKELEEKCQQPASEL [TRIM15]
- protein stability index (treatment: DMSO): 5.5 ± 0.12
- protein stability index (treatment: MLN4924 1 uM, 8 h): 5.52 ± 0.13

Sequence: VPTPKSHLQLLGAVCMFLASKLKE [CCND2]
- protein stability index (treatment: DMSO): 2.11 ± 0.28
- protein stability index (treatment: MLN4924 1 uM, 8 h): 1.92 ± 0.39

Sequence: GPALAGEPAGSLRELGVWRSLLRL [C2CD2L]
- protein stability index (treatment: DMSO): 2.66 ± 0.23
- protein stability index (treatment: MLN4924 1 uM, 8 h): 2.56 ± 0.03

Sequence: RGLRGPNLTSPASITFTTGLEAPR [TNXB]
- protein stability index (treatment: DMSO): 3.84 ± 0.2
- protein stability index (treatment: MLN4924 1 uM, 8 h): 3.92 ± 0.47

Sequence: LCQKSNDISIHHFTCDEENVFAAV [WDR41]
- protein stability index (treatment: DMSO): 2.84 ± 0.18
- protein stability index (treatment: MLN4924 1 uM, 8 h): 2.91 ± 0.31

Sequence: LYRQHQAQIDQYVGLVTNQLSHIK [RTN2]
- protein stability index (treatment: DMSO): 2.08 ± 0.34
- protein stability index (treatment: MLN4924 1 uM, 8 h): 2.05 ± 0.4
